± gives the standard deviation of the averaged measurements.
system: ATP; test: switch fluorescence ratio, 500 uM ATP over buffer (Cy3 cluster intensity, sum of 5 cycles each) (fold (ratio)); higher = stronger signal-on switching upon ATP binding; sequences stand for … in TCGTCGGCAGCGTCAGATGTGTATAAGAGACAGTTTTTTTTTTTTTTTTTTTTTTTTT…TC; details: aptamer strand: ATP DNA aptamer (quencher-CACCTGGGGGAGTATTGCGGAGGAAGG + anchor), 100 nM annealed; ATP concentration: 500 uM
How it was run: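 Values give the fluorescence ratio for each switch-domain sequence, averaged from per-cluster ratios of summed target-cycle to summed buffer-cycle Cy3 intensity. The Cy3-labelled switching-strand clusters sat on a modified Illumina MiSeq flow-cell, were annealed to 100 nM quencher-labelled ATP aptamer, and were imaged in selection buffer, then after 15 min with 500 uM ATP at 22 °C. Five cycles ran with NaOH stripping and re-annealing between them, and clusters outside 100-1000 RFU were excluded.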
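Note: ATP exposure 15 min at 22 °C before imaging.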

| Sequence | switch fluorescence ratio |
| --- | --- |
| AAAGGGCTGG | 0.984 ± 0.019 |
| AAAGGGGAAA | 1 ± 0.051 |
| AAAGGGGCTA | 0.988 ± 0.02 |
| AAAGGGGGCT | 0.9912 ± 0.0026 |
| AAAGGGGGGG | 1.01 ± 0.037 |
| AAAGGGGTCA | 1 ± 0.034 |
| AAAGGGGTCT | 1.01 ± 0.031 |
| AAAGGGGTG | 1.06 ± 0.016 |
| AAAGGGGTGG | 0.992 ± 0.043 |
| AAAGGGTAGA | 1.04 ± 0.019 |
| AAAGGGTGCG | 1.03 ± 0.017 |
| AAAGGGTGTT | 1.04 ± 0.013 |
| AAAGGGTTTT | 1.01 ± 0.022 |
| AAAGGTAATA | 1 ± 0.025 |
| AAAGGTACGA | 1.02 ± 0.016 |
| AAAGGTCGAC | 0.973 ± 0.021 |
| AAAGGTGCAA | 1.21 ± 0.2 |
| AAAGGTGGGC | 0.98 ± 0.039 |
| AAAGGTGGTA | 1.02 ± 0.066 |
| AAAGGTGTAT | 1.02 ± 0.014 |
| AAAGGTTGGT | 1.011 ± 0.0037 |
| AAAGGTTTGC | 1 ± 0.039 |

| Sequence | switch fluorescence ratio |
| --- | --- |
| AAAGGTTTGG | 0.976 ± 0.035 |
| AAAGGTTTTC | 0.9804 ± 0.0084 |
| AAAGTACGCG | 0.984 ± 0.046 |
| AAAGTACTGG | 1.19 ± 0.042 |
| AAAGTCACAC | 1.04 ± 0.022 |
| AAAGTCATCT | 0.995 ± 0.023 |
| AAAGTCCATA | 1.01 ± 0.026 |
| AAAGTCCTAG | 0.99 ± 0.016 |
| AAAGTCGGGC | 0.946 ± 0.059 |
| AAAGTCTACA | 1.03 ± 0.024 |
| AAAGTGATGT | 0.969 ± 0.02 |
| AAAGTGCATC | 0.992 ± 0.0037 |
| AAAGTGGGAT | 1.03 ± 0.019 |
| AAAGTGGTTA | 1.01 ± 0.025 |
| AAAGTGTGC | 1.07 ± 0.03 |
| AAAGTTCAGT | 0.98958 ± 0.00071 |
| AAAGTTTCCA | 0.993 ± 0.025 |
| AAAGTTTCGT | 1.01 ± 0.018 |
| AAAGTTTTCG | 0.977 ± 0.026 |
| AAATAAAACT | 1.1 ± 0.19 |
| AAATAAACGA | 0.98 ± 0.0072 |
| AAATAAAGGG | 0.987 ± 0.032 |

| Sequence | switch fluorescence ratio |
| --- | --- |
| AAATAAATAA | 0.944 ± 0.011 |
| AAATAACCGA | 1.08 ± 0.02 |
| AAATAAGATT | 1.02 ± 0.018 |
| AAATAATTGT | 1.019 ± 0.01 |
| AAATAATTTT | 1.01 ± 0.027 |
| AAATACTTGG | 1.04 ± 0.055 |
| AAATACTTTT | 1.03 ± 0.021 |
| AAATAGAAGA | 1.03 ± 0.038 |
| AAATAGGGGA | 0.989 ± 0.039 |
| AAATAGGTTA | 1.02 ± 0.046 |
| AAATAGGTTT | 1 ± 0.044 |
| AAATATCGGT | 0.971 ± 0.018 |
| AAATATGGTG | 1 ± 0.021 |
| AAATATTGTT | 0.976 ± 0.027 |
| AAATATTTCG | 1.02 ± 0.03 |
| AAATCATATG | 1.08 ± 0.087 |
| AAATCATTGT | 1 ± 0.014 |
| AAATCCGATT | 1.01 ± 0.011 |
| AAATCCTTAT | 0.996 ± 0.063 |
| AAATCGAGCG | 0.969 ± 0.025 |
| AAATCGCATG | 1.03 ± 0.019 |
| AAATCGGAAA | 0.98 ± 0.028 |

| Sequence | switch fluorescence ratio |
| --- | --- |
| AAATCGTAGG | 0.963 ± 0.054 |
| AAATGATCTA | 1.01 ± 0.029 |
| AAATGCACAC | 1.107 ± 0.0021 |
| AAATGCAGGG | 1.01 ± 0.055 |
| AAATGCCACG | 1.06 ± 0.017 |
| AAATGCGGGG | 0.978 ± 0.036 |
| AAATGGATTT | 1.01 ± 0.085 |
| AAATGGCCGG | 0.996 ± 0.024 |
| AAATGGTAGG | 0.996 ± 0.0086 |
| AAATGTCAAA | 0.986 ± 0.042 |
| AAATGTGGCG | 1.03 ± 0.011 |
| AAATGTTATC | 0.986 ± 0.042 |
| AAATTAAATT | 0.996 ± 0.039 |
| AAATTAATTT | 1.02 ± 0.043 |
| AAATTAGGGG | 0.9908 ± 0.0085 |
| AAATTAGTG | 1.05 ± 0.059 |
| AAATTCATTG | 0.969 ± 0.04 |
| AAATTCGATT | 1.032 ± 0.0037 |
| AAATTCGGGT | 0.981 ± 0.016 |
